Reference: patent US20250382359A1 (BYOMASS, published 2025)

T1: Mouse GDF15 Fc (mouse, UniProt Q9Z0J7 189-303, limits assumed)
T1 construct: also called mouse GDF15-Fc fusion; not shown: Fc part
T1 sequence (looked up): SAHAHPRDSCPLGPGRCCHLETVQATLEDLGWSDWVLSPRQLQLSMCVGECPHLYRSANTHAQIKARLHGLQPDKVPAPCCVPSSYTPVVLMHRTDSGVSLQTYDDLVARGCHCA

T2: Cyno GDF15 Fc (cyno, UniProt G7PWZ3 193-308, limits assumed)
T2 construct: also called cyno GDF15-Fc fusion; not shown: Fc part
T2 sequence: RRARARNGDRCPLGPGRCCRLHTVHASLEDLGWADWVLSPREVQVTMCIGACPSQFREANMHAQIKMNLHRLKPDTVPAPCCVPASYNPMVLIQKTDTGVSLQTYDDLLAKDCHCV

T3: GDF15 (ligand used in the GFRAL/RET cell assays) (UniProt Q99988 197-308, limits assumed)
T3 sequence (looked up): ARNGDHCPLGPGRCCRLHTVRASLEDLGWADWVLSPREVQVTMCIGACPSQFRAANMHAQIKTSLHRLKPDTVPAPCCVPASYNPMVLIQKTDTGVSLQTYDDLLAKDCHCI

T4: Human GDF15 Fc (human, UniProt Q99988 195-308, limits assumed, biotinylated (EZ-Link Sulfo-NHS-Biotinylation Kit) in the SPR assay)
T4 construct: also called human GDF15-Fc fusion; biotinylated Human GDF15 Fc; not shown: Fc part
T4 sequence: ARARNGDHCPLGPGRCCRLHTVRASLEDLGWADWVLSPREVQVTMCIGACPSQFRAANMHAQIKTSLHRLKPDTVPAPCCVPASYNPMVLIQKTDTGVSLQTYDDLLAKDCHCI


Columns and labels:
[1] = biological target: T1, Mouse GDF15 Fc; assay: BLI Octet; antigen on sensor, 100 nM Fab (monovalent)
[2] = biological target: T2, Cyno GDF15 Fc; assay: as above
[3] = biological target: T3, GDF15 (ligand used in the GFRAL/RET …); assay: cell-based or functional assay
[4] = biological target: T4, Human GDF15 Fc; assay: SPR Biacore 8K; biotinylated antigen captured, Fab analyte
Protocol: Kinetic analysis was conducted at 25° C. in HBS-EP+running buffer (10 mM HEPES pH 7.4, 150 mM NaCl, 3 mM EDTA, 0.05% Surfactant P20) using a Biacore 8K optical biosensor (Cytiva, Marlborough, MA). The sample compartment was maintained at 10° C. for the duration of the experiment. The Biacore 8K can analyze up to 8 separate interactions in a single cycle.
Each experiment cycle began with an injection (300 s at 2 μL/min) overflow cells 1 and 2 of a 1:100 solution of biotin CAPture reagent (Cytiva) in running buffer. This was followed by an injection (45 s at 10.0 μL/min) of biotinylated human GDF15 (5 nM) overflow cell 2. […] The dissociation of the antibodies were monitored for 3420 s. Finally, an injection (120 s at 10 μL/min) of regeneration solution (6 M Guanidine-HCl in 0.25 M NaOH) overflow cells 1 and 2 prepared the sensor surface for another cycle. Several blank buffer samples were injected (300 s at 30 μL/min) overflow cells 1 and 2 throughout the duration of the experiment and used for reference surface subtraction—each were monitored for the same amount of dissociation time (3420 s) and regenerated under the same conditions as those for the Fab sample injections.

Kd [1] | Kd [2] | GDF15 GFRAL RET pERK Fab IC50 pM [3] | Kd [4] | koff [4] | kon [4] | Binder
204 nM | 0.327 nM |  |  |  |  | GDF15 antibody agent Clone Q, Fab (Fab, V domains shown, Fab; CH1 and CL of the Fab not specified; also called Fab of Clone Q) VH: QVQLQESGPGLVKPSQTLSLTCTVSGGSISSGGIYWTWIRQHPGKGLEWIGAIAYSGSTYYNPSLKSRVTISVDTSKNQFSLKLSSVTAADTAVYYCARGIEYQHFDYWGQGTLVTVSS VL: not shown
 | 0.536 nM | 26.5 pM |  |  |  | GDF15 antibody agent Clone A, Fab (Fab, V domains shown, Fab; CH1 and CL of the Fab not specified; also called Fab of Clone A) VH: QVQLQESGPGLVKPSQTLSLTCTVSGGSITSGGSYWSWIRQHPGKGLEWIGAIVYSGSTYYNPSLKSRVTISVDTSKNQFSLKLSSVTAADTAVYYCARGVEYQHFDYWGQGTLVTVSS VL: not shown
234 nM | 0.366 nM |  |  |  |  | GDF15 antibody agent Clone R, Fab (Fab, V domains shown, Fab; CH1 and CL of the Fab not specified; also called Fab of Clone R) VH: QVQLQESGPGLVKPSQTLSLTCTVSGGSISSGGIYWTWIRQHPGKGLEWIGAIAYSGSTYYNPSLESRVTISVDTSKNQFSLKLSSVTAADTAVYYCARGIEYQHFDYWGQGTLVTVSS VL: not shown
157 nM | 0.562 nM | 27 pM |  |  |  | GDF15 antibody agent Clone D, Fab (Fab, V domains shown, Fab; CH1 and CL of the Fab not specified; also called Fab of Clone D) VH: QVQLQESGPGLVKPSQTLSLTCTVSGGSINSGGYYWTWIRQHPGKGLEWIGAIYYSGSTVYNPSLKSRVTISVDTSKNQFSLKLSSVTAADTAVYYCARGVEYQHFNEWGQGTLVTVSS VL: not shown
156 nM | 0.36 nM | 36.8 pM |  |  |  | GDF15 antibody agent Clone C, Fab (Fab, V domains shown, Fab; CH1 and CL of the Fab not specified; also called Fab of Clone C) VH: QVQLQESGPGLVKPSQTLSLTCTVSGGSISSGGYYWSWIRQHPGKGLEWIGAIVYSGHTYYNPSLKSRVTISVDTSKNQFSLKLSSVTAADTAVYYCARGVEYQHFSLWGQGTLVTVSS VL: not shown
2.56 nM |  | 322 pM | 0.545 nM | 0.00318 s⁻¹ | 5.84e+06 M⁻¹ s⁻¹ | GDF15 antibody agent Clone N, Fab (Fab, V domains shown, Fab; CH1 and CL of the Fab not specified; also called Fab of Clone N) VH: QVQLVQSGAEVKKPGASVKVSCKASGYTFTDYGIFWVRQAPGQGLEWMGWITAYSGDTHYAQKLQGRVTMTTDTSTSTAYMELRSLRSDDTAVYYCVRDTQYGGSPYWGQGTLVTVSS VL: EIVMTQSPATLSVSPGERATLSCRASQSVSSNLAWYQQKPGQAPRLLIYGASTRATGIPARFSGSGSGTEFTLTISSLQSEDFAVYYCQQYNNWPITFGGGTKVEIK
